Assay results: PMC3303121 (Nature, 2012)

Target: A2A adenosine receptor A2AAR N154Q (residues 1-316) (Homo sapiens, UniProt P29274, N154Q)
Assay: SPR

A2A adenosine receptor A2AAR N154Q (residues 1-316), sequence (P29274 1-316 N154Q): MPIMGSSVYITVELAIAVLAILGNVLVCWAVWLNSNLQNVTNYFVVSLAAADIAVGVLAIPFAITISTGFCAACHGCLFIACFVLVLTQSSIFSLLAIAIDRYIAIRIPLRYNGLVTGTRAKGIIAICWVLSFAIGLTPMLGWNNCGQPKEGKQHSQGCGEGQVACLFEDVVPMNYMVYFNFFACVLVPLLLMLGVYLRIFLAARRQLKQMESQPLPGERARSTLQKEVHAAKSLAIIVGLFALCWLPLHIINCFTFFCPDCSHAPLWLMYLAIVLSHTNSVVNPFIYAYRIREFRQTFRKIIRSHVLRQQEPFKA

B1: Fab2838, Fab fragment of mouse monoclonal antibody IgG2838 (Fab, V domains shown)
VH: EVQLQQSGAELVKPGSSVKISCKTSGDSFTAYNMNWVKQSHGKSLEWIGNINPYYGSTRYNQKFKGKATLTVDKSSSTAYIQLNSLTSEDSAVYYCAREGNYYDGGSVRYFDYWGQGTTLTVSS
VL: DIVMTQSPASLSASVGDTVTITCRASEFIYSSLTWYQQKQGGSPQLLVYAATNLADAVPSRFSGSGSGTQFSLKINRLQPEDFGTYYCQHFYGSTWAFGGGTKLEIK
Kd: 4.4 nM
